What was measured:
[1] = target: GMPCPP- and Taxol-stabilised TAMRA-labelled microtubules of porcine brain tubulin (porcine) (UniProt P02550); experiment: TIRF microscopy binding assay; 1 nM GFP-augmin on surface-attached TAMRA-microtubules with importin α, importin β (25-400 nM) or importin α/β (25-100 nM each), with or without 3.5 μM RanQ69L; BRB80 binding buffer; 30°C
[2] = target: recombinant human augmin complex (GFP-augmin), all eight full-length subunits HAUS1-HAUS8 (human) (UniProt Q96CS2); experiment: single-molecule TIRF fluorescence intensity analysis; GFP-augmin particles diffusing on microtubules; particle intensity divided by the intensity of single mGFP-augmin particles (photobleaching experiment); details: remark: other sources report otherwise

median background-corrected fluorescence intensity on microtubules with 100 nM importin α/β and 3.5 µM RanQ69L [1]	median background-corrected fluorescence intensity on microtubules with 400 nM importin β and 3.5 µM RanQ69L [1]	median background-corrected fluorescence intensity on microtubules, control without importin [1]	stoichiometry N [2]	Substance
338	273	321		recombinant human augmin complex (GFP-augmin), all eight full-length subunits HAUS1-HAUS8 (from UniProt Q96CS2-1 1-278; Q9NVX0-1 1-235; Q68CZ6-1 1-603; Q9H6D7-1 1-363; O94927-1 1-633; Q7Z4H7-1 1-955; Q99871-1 1-358; Q9BT25-1 1-410)
			< 10	recombinant human augmin complex (GFP-augmin), all eight full-length subunits HAUS1-HAUS8, Q96CS2-1 1-278; Q9NVX0-1 1-235; Q68CZ6-1 1-603; Q9H6D7-1 1-363; O94927-1 1-633; Q7Z4H7-1 1-955; Q99871-1 1-358; Q9BT25-1 1-410

Source: article PMC10323247
